US20250129135A1, “Multi-Agonist and Use Thereof” (priority 2021, published 2025)
Numbering of substitutions follows the chain as printed. Starred links: 1 amine or outer side, 2 acyl side, 3 side chain; linkers in the order of their positions; H or OH if unused. Non-standard residues stand in square brackets, D forms with d. Groups on a side chain read outwards from the residue. No end group written: not given here. *: point of attachment. C20 diacid = O=C(O)CCCCCCCCCCCCCCCCCCC(=O)*; γGlu = O=C(O)[C@H](CCC(=O)[*:2])N[*:1]; αMeF = C[C@](N)(Cc1ccccc1)C(=O)O; AEEA = NCCOCCOCC(=O)O; Ac3c = NC1(C(=O)O)CC1; Aib = CC(C)(N)C(=O)O

T1: human GIP receptor (human, UniProt P48546 22-466)
T1 sequence (looked up): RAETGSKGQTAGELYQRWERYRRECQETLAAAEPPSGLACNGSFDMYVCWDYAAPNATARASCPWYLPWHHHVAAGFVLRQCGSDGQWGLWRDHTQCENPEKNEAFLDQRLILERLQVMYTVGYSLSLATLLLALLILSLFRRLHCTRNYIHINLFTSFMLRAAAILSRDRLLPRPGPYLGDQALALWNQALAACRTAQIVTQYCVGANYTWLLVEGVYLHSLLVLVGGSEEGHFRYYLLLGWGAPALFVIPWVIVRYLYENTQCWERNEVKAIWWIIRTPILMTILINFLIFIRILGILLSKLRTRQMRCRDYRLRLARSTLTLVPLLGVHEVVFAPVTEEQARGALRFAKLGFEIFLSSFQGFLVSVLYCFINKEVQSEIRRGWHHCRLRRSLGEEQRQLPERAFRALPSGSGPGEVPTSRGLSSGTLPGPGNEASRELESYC

B1: Compound 25 (peptide)
peptide: YXQGTXTSDYSIXLDKKAQXAFIEFLLEGRPSSXHPPPS
modifications: Aib at 2; αMeF(2F) at 6; αMeL at 13; Lys 17 side chain AEEAc-AEEAc-γGlu-CO(CH2)18COOH; Aib at 20; Aib at 34; C-terminal amide (NH2)
B2: Compound 23 (peptide)
peptide: YXQGTXTSDYSIXLDKKAQXAFIEYLLETGPSSGQPPPS
modifications: Aib at 2; αMeF(2F) at 6; αMeL at 13; Lys 17 side chain AEEAc-AEEAc-γGlu-CO(CH2)18COOH; Aib at 20; C-terminal amide (NH2)
B3: Compound 28 (peptide)
peptide: Y[Aib]QGT[αMeF]TSDYSIXLDKK([AEEA-AEEA-γGlu-C20 diacid])AQ[Aib]AFIEFLLES[Aib]PSSGAPP[Ac3c]S-NH2
modifications: not fully specified (residue 13); printed as Y-Aib-QGT-αMeF-TSDYSI-αMeF-LDKK(AEEAc-AEEAc-γGlu-CO(CH2)18COOH)AQ-Aib-AFIEFLLES-Aib-PSSGAPP-Ac3c-S-NH2
B4: Compound 15 (peptide)
peptide: YXQGTXTSDYSIFLDKKAQXAFIEFLLESHPSSGAPPPS
modifications: Aib at 2; αMeF at 6; Lys 17 side chain AEEAc-AEEAc-γGlu-CO(CH2)18COOH; Aib at 20; C-terminal amide (NH2)
B5: Compound 18 (peptide)
peptide: B4 peptide with F25Y, S29X
modifications: Aib at 2; αMeF(2F) at 6; Lys 17 side chain AEEAc-AEEAc-γGlu-CO(CH2)18COOH; Aib at 20; Aib at 29; C-terminal amide (NH2)
B6: Compound 30 (peptide)
peptide: B4 peptide with F13X, S29T, H30X, P38X
modifications: Aib at 2; αMeF at 6; αMeL at 13; Lys 17 side chain AEEAc-AEEAc-γGlu-CO(CH2)18COOH; Aib at 20; Aib at 30; Ac3c at 38; C-terminal amide (NH2)
B7: Compound 32 (peptide)
peptide: B4 peptide with F25Y, S29X, P38X
modifications: Aib at 2; αMeF(2F) at 6; Lys 17 side chain AEEAc-AEEAc-γGlu-CO(CH2)18COOH; Aib at 20; Aib at 29; Ac3c at 38; C-terminal amide (NH2)
B8: Compound 31 (peptide)
peptide: B4 peptide with F13X, S29X, P38X
modifications: Aib at 2; αMeF(2F) at 6; αMeL at 13; Lys 17 side chain AEEAc-AEEAc-γGlu-CO(CH2)18COOH; Aib at 20; Aib at 29; Ac3c at 38; C-terminal amide (NH2)
B9: Compound 2 (peptide)
peptide: B2 peptide with G30H, Q35A, P38X
modifications: Aib at 2; αMeF at 6; αMeL at 13; Lys 17 side chain AEEAc-AEEAc-γGlu-CO(CH2)18COOH; Aib at 20; Ac3c at 38; C-terminal amide (NH2)
B10: Compound 22 (peptide)
peptide: B2 peptide with Y25F, T29G
modifications: Aib at 2; αMeF(2F) at 6; αMeL at 13; Lys 17 side chain AEEAc-AEEAc-γGlu-CO(CH2)18COOH; Aib at 20; C-terminal amide (NH2)
B11: Compound 19 (peptide)
peptide: B2 peptide with Y25F, Q35A
modifications: Aib at 2; αMeF(2F) at 6; αMeL at 13; Lys 17 side chain AEEAc-AEEAc-γGlu-CO(CH2)18COOH; Aib at 20; C-terminal amide (NH2)
B12: Compound 17 (peptide)
peptide: B2 peptide with X13F, Q35A
modifications: Aib at 2; αMeF(2F) at 6; Lys 17 side chain AEEAc-AEEAc-γGlu-CO(CH2)18COOH; Aib at 20; C-terminal amide (NH2)
B13: Compound 20 (peptide)
peptide: B4 peptide with F13X, S29X
modifications: Aib at 2; αMeF(2F) at 6; αMeL at 13; Lys 17 side chain AEEAc-AEEAc-γGlu-CO(CH2)18COOH; Aib at 20; Aib at 29; C-terminal amide (NH2)
B14: Compound 29 (peptide)
peptide: B4 peptide with F25Y, H30X, P38X
modifications: Aib at 2; αMeF at 6; Lys 17 side chain AEEAc-AEEAc-γGlu-CO(CH2)18COOH; Aib at 20; Aib at 30; Ac3c at 38; C-terminal amide (NH2)
B15: Compound 21 (peptide)
peptide: B4 peptide with S29G, H30G, A35Q
modifications: Aib at 2; αMeF(2F) at 6; Lys 17 side chain AEEAc-AEEAc-γGlu-CO(CH2)18COOH; Aib at 20; C-terminal amide (NH2)
B16: Compound 16 (peptide)
peptide: B4 peptide with S29X
modifications: Aib at 2; αMeF at 6; Lys 17 side chain AEEAc-AEEAc-γGlu-CO(CH2)18COOH; Aib at 20; Aib at 29; C-terminal amide (NH2)
B17: Compound 27 (peptide)
peptide: B4 peptide with F13X, F25Y
modifications: Aib at 2; αMeF at 6; αMeF at 13; Lys 17 side chain AEEAc-AEEAc-γGlu-CO(CH2)18COOH; Aib at 20; C-terminal amide (NH2)
B18: Compound 26 (peptide)
peptide: B4 peptide with F13X
modifications: Aib at 2; αMeF at 6; αMeL at 13; Lys 17 side chain AEEAc-AEEAc-γGlu-CO(CH2)18COOH; Aib at 20; C-terminal amide (NH2)
B19: Compound 1 (peptide)
peptide: B2 peptide with Q35A, P38X
modifications: Aib at 2; αMeF at 6; αMeL at 13; Lys 17 side chain AEEAc-AEEAc-γGlu-CO(CH2)18COOH; Aib at 20; Ac3c at 38; C-terminal amide (NH2)
B20: Compound 38 (peptide)
peptide: B1 peptide with G29T, R30G
modifications: Aib at 2; αMeF(2F) at 6; αMeL at 13; Lys 17 side chain AEEAc-AEEAc-γGlu-CO(CH2)18COOH; Aib at 20; Aib at 34; C-terminal amide (NH2)

What follows are binders tested against human GLP-1 receptor (human, UniProt P43220 24-463) (assay: cell-based or functional assay).

Binder | cAMP EC50, HEK-293 cells stably overexpressing human GLP-1 R | cAMP Rel. A (%) against human GLP-1 (7-37), human GLP-1 R cells
B1 | 31 pM | 142%
B2 | 5 pM | 880%
B3 | 24 pM | 183%
B4 | 23 pM | 191%
B5 | 12 pM | 367%
B6 | 20 pM | 220%
B7 | 14 pM | 314%
B8 | 12 pM | 367%
B9 | 26 pM | 169%
B10 | – | 733%
B11 | 9 pM | 489%
B12 | 11 pM | 400%
B13 | 10 pM | 440%
B14 | 16 pM | 275%
B15 | 5 pM | 880%
B16 | 20 pM | 220%
B17 | 16 pM | 275%
B18 | 22 pM | 200%

Each binder was assayed against T1, human GIP receptor (assay: cell-based or functional assay).

Binder | cAMP EC50, CHO cells stably overexpressing human GIP R | cAMP Rel. A (%) against human GIP, human GIP R cells
B1 | 13 pM | 1390%
B2 | 7 pM | 2590%
B19 | 15 pM | 1210%
B20 | 13 pM | –
B3 | 11 pM | 1650%
B4 | – | 548%
B5 | 21 pM | 862%
B6 | 15 pM | 1210%
B7 | 11 pM | 1650%
B8 | – | 2010%
B9 | 25 pM | 724%
B10 | 7 pM | 2590%
B11 | 8 pM | 2260%
B12 | – | 953%
B13 | – | 3020%
B14 | 309 pM | 58.6%
B15 | 8 pM | 2260%
B16 | – | 335%
B17 | 23 pM | 787%
B18 | 7 pM | 2590%

Each binder was assayed against human GCG receptor (human, UniProt P47871 26-477) (assay: cell-based or functional assay).
Chain of human GCG receptor (P47871 26-477): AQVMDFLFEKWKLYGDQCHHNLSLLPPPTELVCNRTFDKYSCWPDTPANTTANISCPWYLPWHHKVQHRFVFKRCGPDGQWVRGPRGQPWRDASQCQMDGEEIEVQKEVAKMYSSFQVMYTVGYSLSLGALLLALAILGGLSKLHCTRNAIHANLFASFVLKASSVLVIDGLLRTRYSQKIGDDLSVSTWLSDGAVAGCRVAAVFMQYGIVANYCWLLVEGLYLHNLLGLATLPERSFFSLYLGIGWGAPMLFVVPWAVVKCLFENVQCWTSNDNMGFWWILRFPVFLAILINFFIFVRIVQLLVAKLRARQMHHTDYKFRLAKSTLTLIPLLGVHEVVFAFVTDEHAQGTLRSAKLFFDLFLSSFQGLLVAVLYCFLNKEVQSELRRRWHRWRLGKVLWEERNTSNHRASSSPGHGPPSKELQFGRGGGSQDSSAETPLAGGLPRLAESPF

Binder | cAMP EC50, HEK-293 cells stably overexpressing human GCG R | cAMP Rel. A (%) against human GCG, human GCG R cells
B1 | 34 pM | 168%
B2 | 25 pM | 228%
B19 | – | 57.6%
B20 | 68 pM | –
B3 | 154 pM | 37%
B4 | – | 41%
B5 | 26 pM | 219%
B6 | 173 pM | 33%
B7 | 17 pM | 335%
B8 | – | 211%
B9 | 232 pM | 24.6%
B10 | 17 pM | 335%
B11 | 29 pM | 197%
B12 | – | 163%
B13 | – | 248%
B14 | 69 pM | 82.6%
B15 | 25 pM | 228%
B16 | – | 33.9%
B17 | – | 96.6%
B18 | – | 43.9%
